What was measured:
[1] = molecular target: preformed complex PARP2-WT_Alexa488 + Nuc165 (human) (UniProt Q9UGN5); experiment: FRET or BRET; Alexa647-labeled HPF1 (acceptor) titrated from 18.5 μM to 0 μM into 1 μM Alexa488-labeled PARP2 (donor) alone or into the preformed PARP2–Nuc165 complex (1 μM / 100 nM); 50 mM Tris-HCl pH 8, 50 mM NaCl, 1 mM MgCl2, 0.1 mM EDTA, 0.1 mM TCEP, 0.01% NP-40; Hill model
[2] = molecular target: preformed complex PARP2-QFRD_Alexa488 + Nuc165 (human) (UniProt Q9UGN5); experiment: as above

Chain of Alexa647-labeled HPF1 (Q9NWY4 whole entry): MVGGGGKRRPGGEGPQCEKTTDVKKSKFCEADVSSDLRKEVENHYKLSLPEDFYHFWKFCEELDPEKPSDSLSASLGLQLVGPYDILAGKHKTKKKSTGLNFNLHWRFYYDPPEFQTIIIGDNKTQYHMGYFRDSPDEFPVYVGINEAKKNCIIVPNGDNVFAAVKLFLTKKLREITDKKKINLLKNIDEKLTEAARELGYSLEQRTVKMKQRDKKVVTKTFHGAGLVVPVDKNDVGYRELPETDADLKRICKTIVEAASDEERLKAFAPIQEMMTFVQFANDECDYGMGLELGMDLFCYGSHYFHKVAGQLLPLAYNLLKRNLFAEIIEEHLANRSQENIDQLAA

Alexa647-labeled HPF1 (from UniProt Q9NWY4 1-346) (natural protein)
Kd [1]: 279 nM
Kd [2]: 702 nM

From paper PMC7608914
